± gives the uncertainty stated by the source.

This series is described as follows: amyloid nucleation score (Sup35N fusion, yeast selection) (log enrichment); library NNK2; higher = more nucleation; inactive = no reads after selection. The method in brief:
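DiMSum was used to calculate nucleation scores as log enrichment of output over input reads, centred on the mode score of non-aggregating sequences. Sequences with fewer than 100 input reads were not scored. Input and output came from Illumina sequencing of plasmid inserts in psi-negative yeast expressing peptides of 20 random codons fused to Sup35N, induced 24 hours with 100 μM copper sulfate and then grown 7 days at 30°C on medium lacking adenine and uracil.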
GIVFVLLLMNVFEVCRSELM: the amyloid nucleation score entry was “inactive”.

Take GKDGTFRVVPRQEDRSAHWL: the amyloid nucleation score was -0.464 ± 1.1.

In turn, GKHIGSLSEWTMVHHDGARR registered an amyloid nucleation score of 1.21 ± 0.32.

The substance GKILVAFLWPISCVR returned an amyloid nucleation score of 0.037 ± 0.65.

In turn, GKITVRDISYVRIWRDSLLY registered an amyloid nucleation score of 3.25 ± 0.1.

Regarding GKMPIRNNKVLLKRSATNLC, the amyloid nucleation score is 5.63 ± 0.067.

Consider GKPCH, for which the amyloid nucleation score was determined as 0.52 ± 0.33.

With GKSSHG, the amyloid nucleation score turned out to be 0.93 ± 0.32.

GKTYVGYFLFNLTGTVYFKR: the amyloid nucleation score turned out to be 0.004 ± 1.1.

Substance GLDCR displayed an amyloid nucleation score of 0.024 ± 0.44.

For the substance GLFLRSTP, the amyloid nucleation score is -0.402 ± 0.42.

For GLIMVSSVLCTFAGMGDNWA, the amyloid nucleation score was 5.84 ± 0.091.

Consider GLIVKLMGIFRNRSETSESQ, for which the amyloid nucleation score was found to be 4.47 ± 0.083.

With GLLIGSDDLLASVICVITCS, the amyloid nucleation score is -1.15 ± 1.1.

The substance GLLSCMPCRGINLLPSVIRR came in with an amyloid nucleation score of 1.21 ± 0.61.

As for GLSGKCLYFISVWYTKFLIS, the amyloid nucleation score result is “inactive”.

On to GLSNR, for which the amyloid nucleation score came to 0.458 ± 0.28.

In turn, GLSVKTGQGSGFPDLCVGKR showed an amyloid nucleation score of 0.838 ± 0.17.

Take GLVFRS: the amyloid nucleation score result was “inactive”.

As to GLVGPSI, the amyloid nucleation score was -0.29 ± 0.48.

In turn, GLVNSTPRKRKLFKGDAVHS gave an amyloid nucleation score of 0.321 ± 0.48.

On to GLVRSRVWRRASSPGYGECV, for which the amyloid nucleation score stood at 1.3 ± 0.33.

Consider GLYGMGIQMGPRISVSYPAA, for which the amyloid nucleation score was found to be 0.536 ± 0.65.

Substance GMEINAYY yielded an amyloid nucleation score of 0.048 ± 0.65.

For GMIGNTIGNECTIYLNDQYV, the amyloid nucleation score came to 0.825 ± 0.34.

GMKCAAFSESVNHRLQFNGT: the amyloid nucleation score was -0.345 ± 0.33.

For the substance GMSSIINVELAGQWTWVKFN, the amyloid nucleation score is 4.18 ± 0.066.

GMTVR: the amyloid nucleation score is 0.011 ± 0.54.

GMVEAR showed an amyloid nucleation score of 0.095 ± 0.46.

GMVVFVI: the amyloid nucleation score stood at 0.21 ± 0.51.

For the substance GMWFLRLSSFTCI, the amyloid nucleation score is 5.722 ± 0.049.

Substance GNCCDDCP had an amyloid nucleation score of 1.53 ± 0.24.

GNEVRGNTMVENPTMSLVMG: the amyloid nucleation score stood at 0.712 ± 0.39.

For the substance GNLLKREFAIVFFSVYKQEA, the amyloid nucleation score is -0.27 ± 0.76.

Substance GNLLVGAKSMVLSRFIGLYR came in with an amyloid nucleation score of 2.16 ± 0.23.

For GNMKCQVTLILMSTSDIREL, the amyloid nucleation score is 7.039 ± 0.041.

Regarding GNQRFVFVLRMGTVGPLHMF, the amyloid nucleation score was found to be 0.836 ± 0.55.

In turn, GNRSTVLRSNLDVYLQDGTV gave an amyloid nucleation score of 1.51 ± 0.32.

In turn, GPFNKMYAYEIRQTGAFWRQ came in with an amyloid nucleation score of -0.098 ± 0.79.

For the substance GPITWTNSSGCRIPMPSFSE, the amyloid nucleation score came to 1.42 ± 0.36.

GPLFRFFRHRAFLQSTFSA showed an amyloid nucleation score of -0.342 ± 0.24.

GPLGHVGLFV: the amyloid nucleation score result was “inactive”.

In turn, GPMRGC showed an amyloid nucleation score of -0.548 ± 1.1.

In turn, GPRLEGWSPPDRAVLSGCSD showed an amyloid nucleation score of 0.656 ± 0.44.

Substance GPVVIVDNFQYDCLA returned an amyloid nucleation score of -0.109 ± 0.76.

As for GQGDYMRFSDNAGGPYSKLE, the amyloid nucleation score worked out at 1.73 ± 0.24.

Take GQGKRNVSLSNGGDKFNLDV: the amyloid nucleation score was found to be 4.98 ± 0.1.

For GQIAKVKPVRWKFKTTTWGS, the amyloid nucleation score was determined as 1.26 ± 0.41.

Regarding GQLNLGCWSYRGSRFWTWLR, the amyloid nucleation score result was “inactive”.

Substance GQNTDVTCQRYERTM gave an amyloid nucleation score of 0.329 ± 0.62.

GRAPLSNNLMDSVTVESVHM: the amyloid nucleation score was -0.744 ± 0.28.

Take GRCYIISCPESWHKPMYVAI: the amyloid nucleation score came out at 0.142 ± 0.34.

Turning to GRGERCKGSKIGCSRKAKID, the amyloid nucleation score is 0.98 ± 0.3.

Regarding GRHQVIGMWCSRLFPLVRRS, the amyloid nucleation score is 0.375 ± 0.56.

Turning to GRMQTKTILKNIECNNDSLM, the amyloid nucleation score was 2.39 ± 0.057.

GRNLFSFVFQMLV: the amyloid nucleation score stood at 0.043 ± 0.29.

With GRRLKGYVTSGIEDWLKGRM, the amyloid nucleation score stood at 0.908 ± 0.35.

In turn, GRSGIFCLPCMLCKFY came in with an amyloid nucleation score of 6 ± 0.064.

The substance GRSSAWFNEGRLW registered an amyloid nucleation score of 0.383 ± 0.39.

In turn, GRVRKSHTVGSACNILYSCA registered an amyloid nucleation score of 1.32 ± 0.29.

Take GSCNRKRHDVAYHLKCGMVA: the amyloid nucleation score stood at 1.09 ± 0.14.

Regarding GSHKK, the amyloid nucleation score is -1 ± 1.1.

The substance GSIVVNGIGKLGKERRVTSV gave an amyloid nucleation score of 0.302 ± 0.21.

As for GSKALVSGGFVSGVKYGKAI, the amyloid nucleation score result is “inactive”.

GSKNFPRPIPDYVWVFTGAI returned an amyloid nucleation score of 0.032 ± 0.43.

GSNIEGY came in with an amyloid nucleation score of -0.512 ± 0.46.

In turn, GSQVYPPPPMADM had an amyloid nucleation score of 0.426 ± 0.3.

GSRCITQVLA showed an amyloid nucleation score of 0.157 ± 0.49.

As for GSRHRDLYLGLRLYYTDVEV, the amyloid nucleation score was -0.763 ± 0.36.

The substance GSRPEWARVLGSLEIGCGAK gave an amyloid nucleation score of 0.535 ± 0.3.

As to GSTVKSIVCDSVWS, the amyloid nucleation score is 0.082 ± 0.65.

As to GSVGGSGIAACGTSDGGTVR, the amyloid nucleation score worked out at 2.02 ± 0.27.

Take GSVRSMVGFNACRTSLYESC: the amyloid nucleation score came out at 0.012 ± 1.

The substance GSVRYWK had an amyloid nucleation score of -0.685 ± 0.36.

As for GSWFVPRMSLSWAGSETGPQ, the amyloid nucleation score entry is “inactive”.

With GTCLSFYEFNSWWIIKMFSK, the amyloid nucleation score was determined as 0.657 ± 0.23.

As for GTIYLFRWSFMWRFWMGTGL, the amyloid nucleation score was -0.644 ± 0.54.

In the case of GTKKARSGARQCLGWEILWM, the amyloid nucleation score was found to be 0.516 ± 0.43.

For GTLGFDLKR, the amyloid nucleation score was -0.507 ± 0.76.

As for GTLPSGICSRKGMPT, the amyloid nucleation score was found to be 0.283 ± 0.28.

In turn, GTNHWTVRLIYLVLHLDRDG gave an amyloid nucleation score of 0.583 ± 0.41.

GTNKAYFNASFMD had an amyloid nucleation score of -0.875 ± 0.44.

Turning to GTPRFEVNIMFHTVDS, the amyloid nucleation score was determined as 1.57 ± 0.22.

Consider GTPVSLNFVLESRTRYQMGA, for which the amyloid nucleation score entry was “inactive”.

For GTSIFHRKDGASTDMACQPF, the amyloid nucleation score was 0.14 ± 0.63.

For the substance GTWKVGQSYVVRVRLFFLLW, the amyloid nucleation score is -0.369 ± 0.36.

With GVAELNLN, the amyloid nucleation score entry was “inactive”.

GVCMSLEVKNKKLSNEHNS: the amyloid nucleation score is 5.18 ± 0.092.

GVCSGFPFVRFRNIYIRRLA displayed an amyloid nucleation score of 3.22 ± 0.078.

GVDLGIRRAFT returned an amyloid nucleation score of 0.578 ± 0.62.

GVEQFFGRSSAVHL returned an amyloid nucleation score of -0.341 ± 0.79.

With GVFSY, the amyloid nucleation score was -0.967 ± 0.29.

As to GVGSCTRQLWRISRSTPLKL, the amyloid nucleation score stood at 2.65 ± 0.069.

In turn, GVHISRVVCQN gave an amyloid nucleation score of 0.265 ± 1.1.

GVHYEKEGVRTSVFSDLSWE gave an amyloid nucleation score of -0.021 ± 0.3.

As to GVPALGFGLAGLTVACFAEE, the amyloid nucleation score is -0.097 ± 0.34.

On to GVPDCLLCVNSIYQGSLSFG, for which the amyloid nucleation score came to 5.24 ± 0.09.

For GVPESGIFLRAHY, the amyloid nucleation score entry was “inactive”.

Consider GVSFSDYLSACCLDAGVSGY, for which the amyloid nucleation score was 0.773 ± 0.23.

In turn, GVTSRYTDSVSCGYPDSMML gave an amyloid nucleation score of 0.594 ± 0.45.

Turning to GVVEYRNFADSIVYGSRKFK, the amyloid nucleation score was -0.685 ± 0.76.

For GVWSITNRFQEIVGNCLCVR, the amyloid nucleation score was 0.576 ± 0.16.

In the case of GWAIPFADIEHCHVLLRISV, the amyloid nucleation score worked out at 0.914 ± 0.46.

The substance GWLHMYY had an amyloid nucleation score of -0.268 ± 0.36.

Take GWRCSNPPASIKWCATLYSV: the amyloid nucleation score was 2.08 ± 0.2.

In turn, GWRLTRDRVG displayed an amyloid nucleation score of 1.31 ± 0.18.

In the case of GWSYTEVYFMIASCYII, the amyloid nucleation score was determined as 1.16 ± 0.29.

GWVKDDWDFTLMRPRFVGRG came in with an amyloid nucleation score of -0.143 ± 0.76.

GYDVERDNFDCVVTKDELFW yielded an amyloid nucleation score of -0.427 ± 0.21.

Turning to GYIAYATVWGLQDNGSRSIA, the amyloid nucleation score was -0.637 ± 0.25.

Substance GYIGGVSWNISVVVCSS yielded an amyloid nucleation score of 2.71 ± 0.11.

GYIYPNRIHNLYVGTMSVTV registered an amyloid nucleation score of 5.43 ± 0.093.

As for GYLGMWVKTCCQWTGERSDM, the amyloid nucleation score was found to be 4.66 ± 0.057.

In turn, GYSVH yielded an amyloid nucleation score of -0.632 ± 1.1.

Regarding HAGVMLSFNIVVPNFTYSKE, the amyloid nucleation score stood at 8.448 ± 0.051.

Consider HAKPDNLLFLTNGEPRTIIR, for which the amyloid nucleation score was -2.15 ± 1.1.

The substance HAMPVYRAEFTLISTIL registered an amyloid nucleation score of 0.268 ± 0.32.

Substance HAVDTHFADRGSLALKYSKC gave an amyloid nucleation score of 1.19 ± 0.59.

Consider HCLEMGCGLYNAR, for which the amyloid nucleation score was 9.476 ± 0.071.

HCNLPDWVHGIYMSKS had an amyloid nucleation score of 0.127 ± 0.74.

In turn, HDKVCTSLRVVDQCLRPGH gave an amyloid nucleation score of 0.608 ± 0.38.

The substance HDRWNWGDCFVIDHALLLMG showed an amyloid nucleation score of 0.393 ± 0.31.

In the case of HDTLIMFTYKVVVLLASERF, the amyloid nucleation score was -0.549 ± 0.63.

As to HEPGLPVRSCNVGRHSLSIL, the amyloid nucleation score is 0.522 ± 0.42.

Regarding HESVHTTHFMAFYC, the amyloid nucleation score is 0.124 ± 0.61.

Substance HFDEPFFCCAGMHAH yielded an amyloid nucleation score of 6.8 ± 0.056.

For HFENLTHYTIVSTFFSLGVP, the amyloid nucleation score result is “inactive”.

Substance HFIKKGDYNKTTKYSPCNEL came in with an amyloid nucleation score of -0.941 ± 0.45.

As to HFILAIFLYCSIWIFEFFSL, the amyloid nucleation score was -1.81 ± 1.

HFKWNYYSYSVWEWVFEQLH gave an amyloid nucleation score of -0.36 ± 0.63.

The substance HFNLCTQNMSNGYRDCRHT gave an amyloid nucleation score of 4.68 ± 0.11.

In the case of HFYHLDTSHSGWDLKSSY, the amyloid nucleation score is 4.68 ± 0.075.

In turn, HGGQRMCAGCV gave an amyloid nucleation score of 0.865 ± 0.31.

For HGGRKG, the amyloid nucleation score came to 1.42 ± 0.31.

For the substance HGICRWL, the amyloid nucleation score was found to be 0.208 ± 0.25.

The substance HGLLTKLWRPFMHGSV gave an amyloid nucleation score of 0.203 ± 0.31.

With HGLTYIGIKCTYIKRVTWVR, the amyloid nucleation score amounted to 0.389 ± 0.57.

In turn, HHRMSYHY gave an amyloid nucleation score of 1.72 ± 0.28.

For HIFCRLRLAGNRLRSCLCNF, the amyloid nucleation score was -1.16 ± 1.1.

HIIGLIYQKGTSWTA registered an amyloid nucleation score of 4.85 ± 0.073.

(Values after the supplement of paper PMC12042874.)
